Results: patent publication US20210388087A1 (Chugai, published 2021)

molecular target: T1, Human CD137 ECD (human); assay: single mutant vs template dBBDu183H
T1 construct: also called 4-1BB
T1 sequence (chain, as listed by the source limits assumed): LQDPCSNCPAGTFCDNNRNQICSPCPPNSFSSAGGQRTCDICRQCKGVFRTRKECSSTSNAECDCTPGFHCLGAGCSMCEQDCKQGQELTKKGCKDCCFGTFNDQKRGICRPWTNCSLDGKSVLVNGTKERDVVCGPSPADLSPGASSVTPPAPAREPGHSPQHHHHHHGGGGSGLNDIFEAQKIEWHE

Row | Binder | fold change of affinity [fold]
1 | H183/L072 VH Y59G (antibody, name in Kabat numbering, V domains shown) VH: QVQLVESGGGLVQPGRSLRLSCAASGFTFSNAWMHWVRQAPGKGLEWVAQIKDKGNAYAAYGAPSVKGRFTISRDDSKNSIYLQMNSLKTEDTAVYYCHYVHYASASTVLPAFGVDAWGQGTTVTVSS VL: DIVMTQSPLSLPVTPGEPASISCQASQELVHMNRNTYLHWYQQKPGQAPRLLIYKVSNRFPGVPDRFSGSGSGTDFTLKISRVEAEDVGVYYCAQGTSVPFTFGQGTKLEIK | 0.9
2 | H183/L072 VH Y94P (antibody, name in Kabat numbering, V domains shown) VH: QVQLVESGGGLVQPGRSLRLSCAASGFTFSNAWMHWVRQAPGKGLEWVAQIKDKGNAYAAYYAPSVKGRFTISRDDSKNSIYLQMNSLKTEDTAVYYCHPVHYASASTVLPAFGVDAWGQGTTVTVSS VL: DIVMTQSPLSLPVTPGEPASISCQASQELVHMNRNTYLHWYQQKPGQAPRLLIYKVSNRFPGVPDRFSGSGSGTDFTLKISRVEAEDVGVYYCAQGTSVPFTFGQGTKLEIK | 0
3 | H183/L072 VH Y59M (antibody, name in Kabat numbering, V domains shown) VH: QVQLVESGGGLVQPGRSLRLSCAASGFTFSNAWMHWVRQAPGKGLEWVAQIKDKGNAYAAYMAPSVKGRFTISRDDSKNSIYLQMNSLKTEDTAVYYCHYVHYASASTVLPAFGVDAWGQGTTVTVSS VL: DIVMTQSPLSLPVTPGEPASISCQASQELVHMNRNTYLHWYQQKPGQAPRLLIYKVSNRFPGVPDRFSGSGSGTDFTLKISRVEAEDVGVYYCAQGTSVPFTFGQGTKLEIK | 1.1
4 | H183/L072 VH Y59S (antibody, name in Kabat numbering, V domains shown) VH: QVQLVESGGGLVQPGRSLRLSCAASGFTFSNAWMHWVRQAPGKGLEWVAQIKDKGNAYAAYSAPSVKGRFTISRDDSKNSIYLQMNSLKTEDTAVYYCHYVHYASASTVLPAFGVDAWGQGTTVTVSS VL: DIVMTQSPLSLPVTPGEPASISCQASQELVHMNRNTYLHWYQQKPGQAPRLLIYKVSNRFPGVPDRFSGSGSGTDFTLKISRVEAEDVGVYYCAQGTSVPFTFGQGTKLEIK | 0.8
5 | H183/L072 VH Y59K (antibody, name in Kabat numbering, V domains shown) VH: QVQLVESGGGLVQPGRSLRLSCAASGFTFSNAWMHWVRQAPGKGLEWVAQIKDKGNAYAAYKAPSVKGRFTISRDDSKNSIYLQMNSLKTEDTAVYYCHYVHYASASTVLPAFGVDAWGQGTTVTVSS VL: DIVMTQSPLSLPVTPGEPASISCQASQELVHMNRNTYLHWYQQKPGQAPRLLIYKVSNRFPGVPDRFSGSGSGTDFTLKISRVEAEDVGVYYCAQGTSVPFTFGQGTKLEIK | 1
6 | H183/L072 VH Y59V (antibody, name in Kabat numbering, V domains shown) VH: QVQLVESGGGLVQPGRSLRLSCAASGFTFSNAWMHWVRQAPGKGLEWVAQIKDKGNAYAAYVAPSVKGRFTISRDDSKNSIYLQMNSLKTEDTAVYYCHYVHYASASTVLPAFGVDAWGQGTTVTVSS VL: DIVMTQSPLSLPVTPGEPASISCQASQELVHMNRNTYLHWYQQKPGQAPRLLIYKVSNRFPGVPDRFSGSGSGTDFTLKISRVEAEDVGVYYCAQGTSVPFTFGQGTKLEIK | 0.8
7 | H183/L072 VH Y59I (antibody, name in Kabat numbering, V domains shown) VH: QVQLVESGGGLVQPGRSLRLSCAASGFTFSNAWMHWVRQAPGKGLEWVAQIKDKGNAYAAYIAPSVKGRFTISRDDSKNSIYLQMNSLKTEDTAVYYCHYVHYASASTVLPAFGVDAWGQGTTVTVSS VL: DIVMTQSPLSLPVTPGEPASISCQASQELVHMNRNTYLHWYQQKPGQAPRLLIYKVSNRFPGVPDRFSGSGSGTDFTLKISRVEAEDVGVYYCAQGTSVPFTFGQGTKLEIK | 0.7
8 | H183/L072 VH Y94I (antibody, name in Kabat numbering, V domains shown) VH: QVQLVESGGGLVQPGRSLRLSCAASGFTFSNAWMHWVRQAPGKGLEWVAQIKDKGNAYAAYYAPSVKGRFTISRDDSKNSIYLQMNSLKTEDTAVYYCHIVHYASASTVLPAFGVDAWGQGTTVTVSS VL: DIVMTQSPLSLPVTPGEPASISCQASQELVHMNRNTYLHWYQQKPGQAPRLLIYKVSNRFPGVPDRFSGSGSGTDFTLKISRVEAEDVGVYYCAQGTSVPFTFGQGTKLEIK | 0
9 | H183/L072 VH Y59Q (antibody, name in Kabat numbering, V domains shown) VH: QVQLVESGGGLVQPGRSLRLSCAASGFTFSNAWMHWVRQAPGKGLEWVAQIKDKGNAYAAYQAPSVKGRFTISRDDSKNSIYLQMNSLKTEDTAVYYCHYVHYASASTVLPAFGVDAWGQGTTVTVSS VL: DIVMTQSPLSLPVTPGEPASISCQASQELVHMNRNTYLHWYQQKPGQAPRLLIYKVSNRFPGVPDRFSGSGSGTDFTLKISRVEAEDVGVYYCAQGTSVPFTFGQGTKLEIK | 0.8
10 | H183/L072 VH Y97I (antibody, name in Kabat numbering, V domains shown) VH: QVQLVESGGGLVQPGRSLRLSCAASGFTFSNAWMHWVRQAPGKGLEWVAQIKDKGNAYAAYYAPSVKGRFTISRDDSKNSIYLQMNSLKTEDTAVYYCHYVHIASASTVLPAFGVDAWGQGTTVTVSS VL: DIVMTQSPLSLPVTPGEPASISCQASQELVHMNRNTYLHWYQQKPGQAPRLLIYKVSNRFPGVPDRFSGSGSGTDFTLKISRVEAEDVGVYYCAQGTSVPFTFGQGTKLEIK | 0
11 | H183/L072 VH Y94M (antibody, name in Kabat numbering, V domains shown) VH: QVQLVESGGGLVQPGRSLRLSCAASGFTFSNAWMHWVRQAPGKGLEWVAQIKDKGNAYAAYYAPSVKGRFTISRDDSKNSIYLQMNSLKTEDTAVYYCHMVHYASASTVLPAFGVDAWGQGTTVTVSS VL: DIVMTQSPLSLPVTPGEPASISCQASQELVHMNRNTYLHWYQQKPGQAPRLLIYKVSNRFPGVPDRFSGSGSGTDFTLKISRVEAEDVGVYYCAQGTSVPFTFGQGTKLEIK | 3.2
12 | H183/L072 VH Y94L (antibody, name in Kabat numbering, V domains shown) VH: QVQLVESGGGLVQPGRSLRLSCAASGFTFSNAWMHWVRQAPGKGLEWVAQIKDKGNAYAAYYAPSVKGRFTISRDDSKNSIYLQMNSLKTEDTAVYYCHLVHYASASTVLPAFGVDAWGQGTTVTVSS VL: DIVMTQSPLSLPVTPGEPASISCQASQELVHMNRNTYLHWYQQKPGQAPRLLIYKVSNRFPGVPDRFSGSGSGTDFTLKISRVEAEDVGVYYCAQGTSVPFTFGQGTKLEIK | 0
13 | H183/L072 VH Y59R (antibody, name in Kabat numbering, V domains shown) VH: QVQLVESGGGLVQPGRSLRLSCAASGFTFSNAWMHWVRQAPGKGLEWVAQIKDKGNAYAAYRAPSVKGRFTISRDDSKNSIYLQMNSLKTEDTAVYYCHYVHYASASTVLPAFGVDAWGQGTTVTVSS VL: DIVMTQSPLSLPVTPGEPASISCQASQELVHMNRNTYLHWYQQKPGQAPRLLIYKVSNRFPGVPDRFSGSGSGTDFTLKISRVEAEDVGVYYCAQGTSVPFTFGQGTKLEIK | 0.9
14 | H183/L072 VH Y59W (antibody, name in Kabat numbering, V domains shown) VH: QVQLVESGGGLVQPGRSLRLSCAASGFTFSNAWMHWVRQAPGKGLEWVAQIKDKGNAYAAYWAPSVKGRFTISRDDSKNSIYLQMNSLKTEDTAVYYCHYVHYASASTVLPAFGVDAWGQGTTVTVSS VL: DIVMTQSPLSLPVTPGEPASISCQASQELVHMNRNTYLHWYQQKPGQAPRLLIYKVSNRFPGVPDRFSGSGSGTDFTLKISRVEAEDVGVYYCAQGTSVPFTFGQGTKLEIK | 1.5
15 | H183/L072 VH Y59P (antibody, name in Kabat numbering, V domains shown) VH: QVQLVESGGGLVQPGRSLRLSCAASGFTFSNAWMHWVRQAPGKGLEWVAQIKDKGNAYAAYPAPSVKGRFTISRDDSKNSIYLQMNSLKTEDTAVYYCHYVHYASASTVLPAFGVDAWGQGTTVTVSS VL: DIVMTQSPLSLPVTPGEPASISCQASQELVHMNRNTYLHWYQQKPGQAPRLLIYKVSNRFPGVPDRFSGSGSGTDFTLKISRVEAEDVGVYYCAQGTSVPFTFGQGTKLEIK | 0.3
16 | H183/L072 VH Y94A (antibody, name in Kabat numbering, V domains shown) VH: QVQLVESGGGLVQPGRSLRLSCAASGFTFSNAWMHWVRQAPGKGLEWVAQIKDKGNAYAAYYAPSVKGRFTISRDDSKNSIYLQMNSLKTEDTAVYYCHAVHYASASTVLPAFGVDAWGQGTTVTVSS VL: DIVMTQSPLSLPVTPGEPASISCQASQELVHMNRNTYLHWYQQKPGQAPRLLIYKVSNRFPGVPDRFSGSGSGTDFTLKISRVEAEDVGVYYCAQGTSVPFTFGQGTKLEIK | 0
17 | H183/L072 VH Y59N (antibody, name in Kabat numbering, V domains shown) VH: QVQLVESGGGLVQPGRSLRLSCAASGFTFSNAWMHWVRQAPGKGLEWVAQIKDKGNAYAAYNAPSVKGRFTISRDDSKNSIYLQMNSLKTEDTAVYYCHYVHYASASTVLPAFGVDAWGQGTTVTVSS VL: DIVMTQSPLSLPVTPGEPASISCQASQELVHMNRNTYLHWYQQKPGQAPRLLIYKVSNRFPGVPDRFSGSGSGTDFTLKISRVEAEDVGVYYCAQGTSVPFTFGQGTKLEIK | 0.8
18 | H183/L072 VH Y59T (antibody, name in Kabat numbering, V domains shown) VH: QVQLVESGGGLVQPGRSLRLSCAASGFTFSNAWMHWVRQAPGKGLEWVAQIKDKGNAYAAYTAPSVKGRFTISRDDSKNSIYLQMNSLKTEDTAVYYCHYVHYASASTVLPAFGVDAWGQGTTVTVSS VL: DIVMTQSPLSLPVTPGEPASISCQASQELVHMNRNTYLHWYQQKPGQAPRLLIYKVSNRFPGVPDRFSGSGSGTDFTLKISRVEAEDVGVYYCAQGTSVPFTFGQGTKLEIK | 0.8
19 | H183/L072 VH Y59H (antibody, name in Kabat numbering, V domains shown) VH: QVQLVESGGGLVQPGRSLRLSCAASGFTFSNAWMHWVRQAPGKGLEWVAQIKDKGNAYAAYHAPSVKGRFTISRDDSKNSIYLQMNSLKTEDTAVYYCHYVHYASASTVLPAFGVDAWGQGTTVTVSS VL: DIVMTQSPLSLPVTPGEPASISCQASQELVHMNRNTYLHWYQQKPGQAPRLLIYKVSNRFPGVPDRFSGSGSGTDFTLKISRVEAEDVGVYYCAQGTSVPFTFGQGTKLEIK | 0.8
20 | H183/L072 VH Y59L (antibody, name in Kabat numbering, V domains shown) VH: QVQLVESGGGLVQPGRSLRLSCAASGFTFSNAWMHWVRQAPGKGLEWVAQIKDKGNAYAAYLAPSVKGRFTISRDDSKNSIYLQMNSLKTEDTAVYYCHYVHYASASTVLPAFGVDAWGQGTTVTVSS VL: DIVMTQSPLSLPVTPGEPASISCQASQELVHMNRNTYLHWYQQKPGQAPRLLIYKVSNRFPGVPDRFSGSGSGTDFTLKISRVEAEDVGVYYCAQGTSVPFTFGQGTKLEIK | 1.1
21 | H183/L072 VH Y97A (antibody, name in Kabat numbering, V domains shown) VH: QVQLVESGGGLVQPGRSLRLSCAASGFTFSNAWMHWVRQAPGKGLEWVAQIKDKGNAYAAYYAPSVKGRFTISRDDSKNSIYLQMNSLKTEDTAVYYCHYVHAASASTVLPAFGVDAWGQGTTVTVSS VL: DIVMTQSPLSLPVTPGEPASISCQASQELVHMNRNTYLHWYQQKPGQAPRLLIYKVSNRFPGVPDRFSGSGSGTDFTLKISRVEAEDVGVYYCAQGTSVPFTFGQGTKLEIK | 0
